Here are results for two molecules from publication PMC11252482 (Acta Pharmaceutica Sinica. B, 2024).

The experiment has as its target His-PKM2, purified recombinant (UniProt P14618-1 1-531). Kind of experiment: pull-down.

His-PKM2, purified recombinant, sequence (P14618 whole entry): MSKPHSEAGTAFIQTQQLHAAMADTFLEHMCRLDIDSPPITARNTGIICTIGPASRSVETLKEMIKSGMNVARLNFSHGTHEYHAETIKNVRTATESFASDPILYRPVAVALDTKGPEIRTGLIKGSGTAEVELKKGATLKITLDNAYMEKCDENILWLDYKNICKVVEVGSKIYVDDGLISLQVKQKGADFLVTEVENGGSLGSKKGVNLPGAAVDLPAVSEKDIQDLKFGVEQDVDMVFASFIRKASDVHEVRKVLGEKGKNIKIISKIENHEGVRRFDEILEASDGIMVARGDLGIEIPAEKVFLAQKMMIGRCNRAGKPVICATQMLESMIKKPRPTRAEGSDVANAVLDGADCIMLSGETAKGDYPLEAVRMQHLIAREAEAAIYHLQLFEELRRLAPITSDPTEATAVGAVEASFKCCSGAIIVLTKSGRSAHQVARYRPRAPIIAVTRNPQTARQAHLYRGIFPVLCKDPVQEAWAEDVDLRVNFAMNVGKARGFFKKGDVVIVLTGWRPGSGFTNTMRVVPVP

B1: GST-KHK-A (enzyme)
chain: MEEKQILCVGLVVLDVISLVDKYPKEDSEIRCLSQRWQRGGNASNSCTVLSLLGAPCAFMGSMAPGHVADFVLDDLRRYSVDLRYTVFQTTGSVPIATVIINEASGSRTILYYDRSLPDVSATDFEKVDLTQFKWIHIEGRNASEQVKMLQRIDAHNTRQPPEQKIRVSVEVEKPREELFQLFGYGDVVFVSKDVAKHLGFQSAEEALRGLYGRVRKGAVLVCAWAEEGADALGPDGKLLHSDAFPPPRVVDTLGAGDTFNASVIFSLSQGRSVQEALRFGCQVAGKKCGLQGFDGIV
B1: the binding result is listed as “binds”.

B2: GST-KHK-A G257R (enzyme)
chain: MEEKQILCVGLVVLDVISLVDKYPKEDSEIRCLSQRWQRGGNASNSCTVLSLLGAPCAFMGSMAPGHVADFVLDDLRRYSVDLRYTVFQTTGSVPIATVIINEASGSRTILYYDRSLPDVSATDFEKVDLTQFKWIHIEGRNASEQVKMLQRIDAHNTRQPPEQKIRVSVEVEKPREELFQLFGYGDVVFVSKDVAKHLGFQSAEEALRGLYGRVRKGAVLVCAWAEEGADALGPDGKLLHSDAFPPPRVVDTLGARDTFNASVIFSLSQGRSVQEALRFGCQVAGKKCGLQGFDGIV
In the case of B2, the binding result is on record as “binds”.
